# Results published in US20070004909A1 (MacroGenics, published 2007).
# Read-outs that look alike come from different tables or passages of the source.
# B1: tetrameric IgG-like diabody of constructs 7 and 8 (pMGX0677+pMGX0678) (bispecific antibody)
# chain 1: EIVLTQSPDFQSVTPKEKVTFTCRTSQSIGTNIHWYQQKPDQSPKLLIKEVSESISGVPSRFSGSGSGTDFTLTINSLEAEDAATYYCQQSNTWPFTFGGGTKVEIKGGGSGGGGQVTLRESGPALVKPTQTLTLTCTFSGFSLSTSGMGVGWIRQPPGKALEWLAHIWWDDDKRYNPALKSRLTISKDTSKNQVVLTMTNMDPVDTATYYCAQINPAWFAYWGQGTLVTVSSLGGCFNRGEC
# chain 2: not shown
# notes: heavier chain construct 8 (hu3G8VL-hu2B6VH-LGGC-hinge/Fc of human IgG1, A215V); Tested as normalized conditioned medium
# B2: diabody of constructs 1 and 9 (pMGX0669+pMGX0719), N-terminal hinge/Fc (bispecific antibody, human IgG1)
# chain 1: EIVLTQSPDFQSVTPKEKVTFTCRTSQSIGTNIHWYQQKPDQSPKLLIKEVSESISGVPSRFSGSGSGTDFTLTINSLEAEDAATYYCQQSNTWPFTFGGGTKVEIKGGGSGGGGQVTLRESGPALVKPTQTLTLTCTFSGFSLSTSGMGVGWIRQPPGKALEWLAHIWWDDDKRYNPALKSRLTISKDTSKNQVVLTMTNMDPVDTATYYCAQINPAWFAYWGQGTLVTVSSLGGC
# chain 2: not shown
# notes: Designed as tetravalent IgG-like diabody; Tested as normalized conditioned medium; also called constructs 9 and 1; constructs 9+1
# B3: diabody of constructs 1 and 10 (pMGX0669+pMGX0718), N-terminal Fc (bispecific antibody)
# chain 1: EIVLTQSPDFQSVTPKEKVTFTCRTSQSIGTNIHWYQQKPDQSPKLLIKEVSESISGVPSRFSGSGSGTDFTLTINSLEAEDAATYYCQQSNTWPFTFGGGTKVEIKGGGSGGGGQVTLRESGPALVKPTQTLTLTCTFSGFSLSTSGMGVGWIRQPPGKALEWLAHIWWDDDKRYNPALKSRLTISKDTSKNQVVLTMTNMDPVDTATYYCAQINPAWFAYWGQGTLVTVSSLGGC
# chain 2: not shown
# notes: also called constructs 10 and 1; constructs 10+1; copies: 2 + 2
# B4: diabody of constructs 11 and 12, C-terminal hinge-Fc and engineered VL/VH cysteines (bispecific antibody, human IgG1)
# chain 1: not shown
# chain 2: DIVMTQSPDSLAVSLGERATINCKASQSVDFDGDSFMNWYQQKPGQPPKLLIYTTSNLESGVPDRFSGSGSGTDFTLTISSLQAEDVAVYYCQQSNEDPYTFGQGTKLEIKGGGSGGGGQVQLVQSGAEVKKPGASVKVSCKASGYTFTNYWIHWVRQAPGQCLEWIGVIDPSDTYPNYNKKFKGRVTMTVVVSTSTAYMELRSLRSDDTAVYYCARNGDSDYYSGMDYWGQGTTVTVSSFNRGEC
# notes: construct 12 = Hu3G8VL-Hu2B6VH(G44C)-FNRGEC; About 150 kDa on the blot
# B5: h2B6-h3G8 covalent bispecific diabody (CBD) (bispecific antibody)
# chain 1: EIVLTQSPDFQSVTPKEKVTFTCRTSQSIGTNIHWYQQKPDQSPKLLIKEVSESISGVPSRFSGSGSGTDFTLTINSLEAEDAATYYCQQSNTWPFTFGGGTKVEIKGGGSGGGGQVTLRESGPALVKPTQTLTLTCTFSGFSLSTSGMGVGWIRQPPGKALEWLAHIWWDDDKRYNPALKSRLTISKDTSKNQVVLTMTNMDPVDTATYYCAQINPAWFAYWGQGTLVTVSSLGGC
# chain 2: DIVMTQSPDSLAVSLGERATINCKASQSVDFDGDSFMNWYQQKPGQPPKLLIYTTSNLESGVPDRFSGSGSGTDFTLTISSLQAEDVAVYYCQQSNEDPYTFGQGTKLEIKGGGSGGGGQVQLVQSGAEVKKPGASVKVSCKASGYTFTNYWIHWVRQAPGQGLEWIGVIDPSDTYPNYNKKFKGRVTMTVVVSTSTAYMELRSLRSDDTAVYYCARNGDSDYYSGMDYWGQGTTVTVSSLGGC
# notes: also called h2B6-h3G8 CBD; h2B6-h3G8 diabody
# What was measured:
# soluble CD16A (sCD16A) [1] = molecular target: T1, soluble CD16A (sCD16A) (UniProt P08637 17-208, limits assumed); assay: sandwich ELISA: sCD32B coated on the plate, normalised conditioned medium titrated, HRP-conjugated sCD16A as the probe; OD450
# T1 construct: extracellular domain; Amine-coupled to the chip in SPR; biotin- or HRP-conjugated as the probe in the sandwich ELISAs; also called FcγRIIIA; sCD16A-Biotin
# T1 sequence (P08637 17-208 limits assumed): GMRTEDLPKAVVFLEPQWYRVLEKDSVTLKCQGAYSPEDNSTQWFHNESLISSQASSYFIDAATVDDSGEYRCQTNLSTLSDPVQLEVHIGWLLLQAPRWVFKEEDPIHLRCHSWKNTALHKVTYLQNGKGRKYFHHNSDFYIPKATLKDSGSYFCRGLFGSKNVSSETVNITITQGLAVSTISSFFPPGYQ
# Experimental: The binding of diabody molecules comprising Fc domains to sCD32B and sCD16A was assayed in a sandwich ELISA. Diabodies assayed were produced by 4 recombinant expression systems: cotransfection of pMGX669+pMGX674, expressing constructs 1 and 6, respectively; cotransfection of pMGX669+pMGX678, expressing constructs 2 and 8, respectively; cotransfection of pMGX677+pMGX674, expressing constructs 7 and 6, respectively; and cotransfection of pMGX677+pMGX678, expressing constructs 7 and 8, respectively. sCD32B was used as the target protein. The secondary probe was HRP conjugated sCD16A.
# (§1) ELISA: The binding of diabody molecules secreted into the medium was assayed by sandwich ELISA as described, supra. Unless indicated, CD32B was used to coat the plate, i.e., as the target protein, and HRP-conjugated CD16 was used as the probe.
# soluble CD16A (sCD16A) [2] = molecular target: T1, soluble CD16A (sCD16A); assay: as above; remark: listed apart in the source
# Experimental: The binding of diabody molecules comprising Fc domains and engineered disulfide bonds between the ‘lighter’ and ‘heavier’ polypeptide chains to sCD32B and sCD16A was assayed in a sandwich ELISA. Diabodies assayed were produced by 3 recombinant expression systems: expressing constructs 1 and 10, expressing constructs 1 and 9, and expressing constructs 11 and 12, respectively. sCD32B was used as the target protein. The secondary probe was HRP conjugated sCD16A. Binding of h3G8 was used as control.
# as §1
# sCD32B-Ig = molecular target: T2, sCD32B-Ig (UniProt P31994 43-217); assay: sandwich ELISA: sCD32B-Ig coated on the plate, diabody titrated, detected with labelled sCD16A; OD450
# T2 construct: extracellular domain; also called CD32B (ELISA coat); sCD32B (target protein of the sandwich ELISAs); not shown: Ig part of sCD32B-Ig is not described
# T2 sequence (looked up): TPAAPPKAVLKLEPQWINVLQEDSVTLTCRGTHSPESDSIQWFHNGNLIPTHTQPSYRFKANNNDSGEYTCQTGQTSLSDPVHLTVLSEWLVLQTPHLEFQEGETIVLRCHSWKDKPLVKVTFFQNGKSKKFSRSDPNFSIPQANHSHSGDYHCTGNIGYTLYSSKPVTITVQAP
# Experimental: The binding of h2B6-h3G8 CBD to sCD32B and sCD16A was assayed in a sandwich ELISA. sCD32B was used as the target protein. The secondary probe was HRP conjugated sCD16A. h3G8 CMD, which binds CD16A, was used as control.
# ELISA: The binding of eluted and purified diabodies was characterized by ELISA assay, as described in 5.4.2. 50 ul/well of a 2 ug/ml solution of sCD32B-Ig was coated on 96-well Maxisorp plate in Carbonate buffer at 4° C. over night. The plate was washed three times with PBS-T (PBS, 0.1% Tween 20) and blocked by 0.5% BSA in PBS-T for 30 minutes at room temperature. Subsequently, h2B6-h3G8 CBD, h2B6 CMD, or h3G8 CMD were diluted into the blocking buffer in a serial of two-fold dilutions to generate a range of diabody concentrations, from 0.5 μg/ml to 0.001 μg/ml. The plate was then incubated at room temperature for 1 hour. After washing with PBS-T three times, 50 ul/well of 0.2 ug/ml sCD16A-Biotin was added to each well. The plate was again incubated at room temperature for 1 hour. After washing with PBS-T three times, 50 ul/well of a 1:5000 dilution of HRP conjugated streptavidin (Amersham Pharmacia Biotech) was used for detection. The HRP-streptavidin was allowed to incubate for 45 minutes at room temperature. […] The OD450 nm was read by using a 96-well plate reader and SOFTmax software, and results plotted using GraphPadPrism 3.03 software. […]
# soluble CD32A (sCD32A) = molecular target: T3, soluble CD32A (sCD32A) (UniProt P12318 34-217, limits assumed); assay: SPR (BIAcore), sCD32A (negative control receptor) immobilised, diabody injected for 60 s
# T3 construct: extracellular domain; Negative control surface in SPR; also called control receptor
# T3 sequence (looked up): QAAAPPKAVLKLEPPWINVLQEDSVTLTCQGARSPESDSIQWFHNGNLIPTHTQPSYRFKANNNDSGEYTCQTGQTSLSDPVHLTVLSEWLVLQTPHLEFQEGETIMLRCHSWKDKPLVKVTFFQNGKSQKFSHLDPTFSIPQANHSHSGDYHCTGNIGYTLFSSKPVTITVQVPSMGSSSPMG
# Experimental: The binding of h2B6-h3G8 CBD, h2B6 CMD and h3G8 CMD to sCD16A, sCD32B, and sCD32A (negative control) was assayed by SPR analysis. h3G8 scFv was also tested as a control. (A) Binding to sCD16; (B) Binding to sCD32B and (C) Binding to sCD32A. Diabodies were injected at a concentration of 100 NM, and scFv at a concentration of 200 nM, over receptor surfaces at a flow rate of […] for 60 sec.
# soluble CD16A (sCD16A) [3] = molecular target: T1, soluble CD16A (sCD16A); assay: SPR (BIAcore 1000); receptor amine-coupled (~1000 RU), analyte 6.25-200 nM; units not printed (koff/kon implies nM)
# Experimental: (§2) The binding of h2B6-h3G8 CBD, h2B6 CMD and h3G8 CMD to sCD16A, and sCD32B was assayed by SPR analysis. h3G8 scFv was also tested as a control. (A) Binding of to h3G8 CMD sCD16A; (B) Binding of h2B6-h3G8 CBD to sCD16A; (C) Binding of h3G8 scFv to sCD16A; (D) Binding of h2B6 CMD to sCD32B; and (E) Binding of h2B6-h3G8 CBD to sCD32B. Diabodies were injected at concentrations of 6.25-200 nM over receptor surfaces at a flow rate of […] for 180 sec.
# (§3) SPR analysis was also used to estimate the kinetic and equilibrium constants of the CMDs and h2B6-h3G8 CBD to sCD16 and/or sCD32B. Results were compared to the same constants calculated for an h3G8 scFV. FIGS. 7A-E show the graphical results of the SPR analysis. The kinetic on and off rates, as well as the equilibrium constant, calculated from the results depicted in FIG. 7 are provided in Table 13.
# soluble CD32B (sCD32B) = molecular target: T4, soluble CD32B (sCD32B) (UniProt P31994 43-217, limits assumed); assay: as above
# T4 construct: extracellular domain; As immobilised on the BIAcore chip; also called FcγRIIB
# T4 sequence (looked up): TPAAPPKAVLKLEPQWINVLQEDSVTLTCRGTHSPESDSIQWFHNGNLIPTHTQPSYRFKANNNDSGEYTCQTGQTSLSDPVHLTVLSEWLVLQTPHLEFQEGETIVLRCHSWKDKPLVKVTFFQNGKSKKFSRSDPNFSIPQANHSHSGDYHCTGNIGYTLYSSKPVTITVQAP
# Experimental: as §2, §3
binder,measurement,setting,value
B1,binding result,soluble CD16A (sCD16A) [1],binds
B2,binding result,soluble CD16A (sCD16A) [2],binds
B3,binding result,soluble CD16A (sCD16A) [2],binds
B4,binding result,soluble CD16A (sCD16A) [2],binds
B5,EC50 (read off the curve),sCD32B-Ig,~0.04 µg/mL
same,binding result,soluble CD32A (sCD32A),no binding (tested: 100 nM)
same,Kd,soluble CD16A (sCD16A) [3],22.7 nM
same,Kd,soluble CD32B (sCD32B),15 nM
